Measurements: doi:10.1101/2023.04.22.537891

Molecular target: T1, TaNAC016-3A (Triticum aestivum, UniProt A0A3B6EBU1 1-353)
T1 sequence: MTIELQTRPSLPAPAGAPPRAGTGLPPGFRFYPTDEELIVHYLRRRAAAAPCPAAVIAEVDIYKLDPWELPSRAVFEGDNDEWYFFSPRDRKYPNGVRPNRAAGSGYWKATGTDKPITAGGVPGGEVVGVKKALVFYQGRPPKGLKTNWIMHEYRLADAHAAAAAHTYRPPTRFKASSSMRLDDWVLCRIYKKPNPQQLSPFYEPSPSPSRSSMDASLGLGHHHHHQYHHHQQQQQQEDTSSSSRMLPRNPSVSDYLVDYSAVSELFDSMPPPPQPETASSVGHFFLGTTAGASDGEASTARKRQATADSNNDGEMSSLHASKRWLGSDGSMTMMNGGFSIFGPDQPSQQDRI
Test: EMSA

B1: proTaPAO-4B EMSA probe (PAOsite2) (dsDNA)
DNA 1: AAGGATGGCCGGCACTTACGCAACCTGTCCTTAGACCCCCACAGAAC
DNA 2: GTTCTGTGGGGGTCTAAGGACAGGTTGCGTAAGTGCCGGCCATCCTT
  binding result: binds
